Molecular target: Interleukin-1 receptor on human fibroblasts (NHDF, normal human dermal fibroblasts) (human)
Assay: cell-based or functional assay

Interleukin-1 receptor on human fibroblasts (NHDF, normal human dermal fibroblasts) (human), sequence (P14778 18-569): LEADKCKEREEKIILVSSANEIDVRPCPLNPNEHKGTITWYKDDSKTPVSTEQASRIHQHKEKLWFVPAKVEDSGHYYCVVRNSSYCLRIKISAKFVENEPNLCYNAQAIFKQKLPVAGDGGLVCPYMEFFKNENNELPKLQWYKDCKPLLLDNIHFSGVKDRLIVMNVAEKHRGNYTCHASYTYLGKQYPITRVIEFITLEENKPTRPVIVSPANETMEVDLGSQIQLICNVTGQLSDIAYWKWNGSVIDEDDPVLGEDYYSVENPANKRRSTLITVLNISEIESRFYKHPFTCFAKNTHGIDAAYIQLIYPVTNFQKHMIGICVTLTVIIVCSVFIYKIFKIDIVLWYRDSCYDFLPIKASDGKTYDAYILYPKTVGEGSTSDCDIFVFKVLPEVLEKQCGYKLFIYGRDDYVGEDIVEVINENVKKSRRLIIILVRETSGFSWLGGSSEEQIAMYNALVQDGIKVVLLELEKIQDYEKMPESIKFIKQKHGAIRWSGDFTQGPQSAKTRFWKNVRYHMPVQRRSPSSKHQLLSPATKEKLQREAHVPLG

Substance: IL-1 Hy1 Receptor Antagonist, non-tagged / preparation not specified (from UniProt Q9UBH0 1-155) (ligand)
- inhibition of IL-1β stimulated PGE2 production in CCD 1098 human fibroblast cells (PGE2 ELISA): 40 to 60 % inhibition
